Results published in the supplement of paper PMC10126150.
± gives the standard deviation of the averaged measurements.

Tested on: ATP
Assay: switch fluorescence ratio, 500 uM ATP over buffer (Cy3 cluster intensity, sum of 5 cycles each) (fold (ratio)); higher = stronger signal-on switching upon ATP binding; sequences stand for … in TCGTCGGCAGCGTCAGATGTGTATAAGAGACAGTTTTTTTTTTTTTTTTTTTTTTTTT…TC
Details: aptamer strand: ATP DNA aptamer (quencher-CACCTGGGGGAGTATTGCGGAGGAAGG + anchor), 100 nM annealed; ATP concentration: 500 uM
Outline: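 For every switch-domain sequence, the fluorescence ratio is the mean of per-cluster values, each being summed target-cycle Cy3 intensity over summed buffer-cycle Cy3 intensity. Clusters outside 100-1000 RFU were excluded. On a modified Illumina MiSeq flow-cell, the Cy3-labelled switching-strand clusters were annealed to 100 nM quencher-labelled ATP aptamer, imaged in selection buffer and then after 15 min with 500 uM ATP at 22 °C. Five such cycles were run, with NaOH stripping and re-annealing between them.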
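Further: ATP exposure 15 min at 22 °C before imaging.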

Sequence	switch fluorescence ratio
ATAGGGCTTG	0.9746 ± 0.005
ATAGGGGA	0.989 ± 0.018
ATAGGGGAAA	0.987 ± 0.024
ATAGGGGCAT	1 ± 0.025
ATAGGGGCGC	1 ± 0.047
ATAGGGGGAT	0.993 ± 0.015
ATAGGGGGGG	1.03 ± 0.025
ATAGGGTGGG	1 ± 0.022
ATAGGTATTC	0.976 ± 0.026
ATAGGTCTCG	1 ± 0.031
ATAGGTGGTT	0.994 ± 0.019
ATAGGTTCGT	0.99 ± 0.012
ATAGGTTGTT	0.973 ± 0.016
ATAGGTTTTG	0.9864 ± 0.004
ATAGTAAAAC	1.05 ± 0.02
ATAGTAACAC	1.06 ± 0.038
ATAGTAGGTC	1.048 ± 0.0015
ATAGTATCTT	1 ± 0.021
ATAGTATGTA	1.01 ± 0.031
ATAGTCCTGG	0.963 ± 0.019
ATAGTGGACA	0.9867 ± 0.0019
ATAGTGGGGT	0.987 ± 0.021
ATAGTGGGTG	0.997 ± 0.037

Sequence	switch fluorescence ratio
ATAGTGGTGC	0.958 ± 0.067
ATAGTGTTGA	1.03 ± 0.011
ATAGTTAAAT	0.943 ± 0.089
ATAGTTCTGG	0.992 ± 0.018
ATAGTTGGA	0.953 ± 0.019
ATAGTTTAGG	1.016 ± 0.0076
ATATAACATT	1.05 ± 0.018
ATATAAGTAG	1.03 ± 0.014
ATATACTAAT	1.02 ± 0.038
ATATACTACA	1.06 ± 0.022
ATATAGAATA	1.03 ± 0.024
ATATAGGGGC	1.02 ± 0.046
ATATAGGTTG	0.974 ± 0.051
ATATATGCCG	0.985 ± 0.044
ATATATGTCG	1.07 ± 0.049
ATATATGTGG	0.981 ± 0.057
ATATATTGAG	0.995 ± 0.019
ATATATTGCG	1.016 ± 0.0031
ATATATTGGT	0.9922 ± 0.0046
ATATATTTAT	1.022 ± 0.0085
ATATCAAGGA	1 ± 0.029
ATATCAGGGC	0.961 ± 0.034
ATATCCAATA	0.99 ± 0.036

Sequence	switch fluorescence ratio
ATATCCGACA	1.054 ± 0.0056
ATATCCTAGT	0.987 ± 0.029
ATATCCTTGG	0.984 ± 0.026
ATATCGGGGT	1.001 ± 0.0045
ATATGAAGGA	0.993 ± 0.013
ATATGAAGGT	0.9893 ± 0.0047
ATATGGCTTT	1.02 ± 0.013
ATATGGGTAC	1.034 ± 0.0052
ATATGGGTTC	1 ± 0.026
ATATGGTCGT	0.998 ± 0.017
ATATGGTTGG	0.958 ± 0.016
ATATGTAAAC	1 ± 0.047
ATATGTATGC	0.97875 ± 3.4e-05
ATATGTGGTA	1.01 ± 0.031
ATATGTTAGT	0.988 ± 0.011
ATATTAAAAC	0.988 ± 0.034
ATATTACTGC	1.07 ± 0.02
ATATTAGGGA	1 ± 0.0079
ATATTAGTTA	0.997 ± 0.05
ATATTCCGTT	0.968 ± 0.018
ATATTGAAGG	0.981 ± 0.012
ATATTGACAC	1.08 ± 0.012
ATATTGGCTA	1 ± 0.0039

Sequence	switch fluorescence ratio
ATATTTAAGG	0.995 ± 0.029
ATATTTACCG	1.04 ± 0.011
ATATTTAGAG	0.992 ± 0.027
ATATTTAGTT	1.01 ± 0.051
ATATTTGCCA	1.02 ± 0.021
ATATTTTTT	0.9892 ± 0.0038
ATCAAAACGT	1.04 ± 0.043
ATCAAAGGTG	1.404 ± 0.0027
ATCAAATATC	1.036 ± 0.0086
ATCAACACCG	1.06 ± 0.034
ATCAACGGTG	1.01 ± 0.044
ATCAACGTTA	1.07 ± 0.031
ATCAAGACAG	1.01 ± 0.033
ATCAAGAGGG	1.01 ± 0.014
ATCACAGGTT	1.07 ± 0.0082
ATCACGGGAT	1.015 ± 0.0039
ATCACTTTAT	1.38 ± 0.51
ATCAGAATCC	1.04 ± 0.013
ATCAGACGGG	1 ± 0.025
ATCAGAGGTG	1.14 ± 0.0059
ATCAGCGACT	0.993 ± 0.043
ATCAGGTAAG	0.9682 ± 0.0024
ATCAGTATAT	0.992 ± 0.021

Sequence	switch fluorescence ratio
ATCAGTTGTT	1.0008 ± 0.00044
ATCATAAGTT	1.01 ± 0.016
ATCATAATCT	1.013 ± 0.0034
ATCATACTTG	1.03 ± 0.029
ATCATATTCG	0.99 ± 0.02
ATCATCGGGG	0.988 ± 0.043
ATCATGCCTA	0.989 ± 0.033
ATCATGTGCG	1.01 ± 0.033
ATCCAGACGG	1.04 ± 0.026
ATCCAGGTTG	1.68 ± 0.11
ATCCATATT	1.03 ± 0.029
ATCCCCGACC	1.25 ± 0.063
ATCCGCTTTA	3.28 ± 0.25
ATCCGGGTGT	2.74 ± 0.17
ATCCGGTCGC	1.04 ± 0.029
ATCCGGTCGG	1.03 ± 0.066
ATCCGTGAGA	1.05 ± 0.02
ATCCGTGATG	1.11 ± 0.051
ATCCTCTCGG	1.05 ± 0.017
ATCCTTGTTG	0.965 ± 0.027
ATCGACATAT	1.043 ± 0.0031
ATCGACATTA	1.01 ± 0.017
ATCGACGTGT	1.02 ± 0.02

Sequence	switch fluorescence ratio
ATCGAGGGA	0.995 ± 0.061
ATCGAGTAAG	1.02 ± 0.029
ATCGATGAGG	0.991 ± 0.058
ATCGATTGT	0.973 ± 0.028
ATCGCAATTG	1.89 ± 0.36
ATCGCGGGTT	0.99 ± 0.05
ATCGCGTCGT	0.995 ± 0.035
ATCGCTATGT	1.05 ± 0.043
ATCGCTGGGA	0.972 ± 0.02
ATCGCTTACA	1.02 ± 0.028
ATCGGAAAG	1.65 ± 0.92
ATCGGAATGT	1.012 ± 0.0063
ATCGGAGCCA	1.02 ± 0.047
ATCGGAGGGC	1.02 ± 0.013
ATCGGAGGGG	0.957 ± 0.015
ATCGGAGTTC	0.989 ± 0.047
ATCGGATATA	0.989 ± 0.015
ATCGGATGTA	1.016 ± 0.0084
ATCGGCAGGG	0.981 ± 0.052
ATCGGGGTAA	1.04 ± 0.068
ATCGGGTGCG	0.981 ± 0.022
ATCGGTACGT	1.03 ± 0.021
ATCGGTATCC	1.035 ± 0.0064

Sequence	switch fluorescence ratio
ATCGGTCCTT	1.03 ± 0.027
ATCGGTCTGT	0.975 ± 0.018
ATCGGTCTTG	1 ± 0.004
ATCGGTTACC	1.011 ± 0.0045
ATCGTAAAAG	0.9926 ± 0.0011
ATCGTAGATT	0.993 ± 0.016
ATCGTAGGTT	0.972 ± 0.015
ATCGTATGGT	1 ± 0.023
ATCGTATTGT	0.993 ± 0.03
ATCGTCATGG	1.01 ± 0.012
ATCGTCGGTA	1.03 ± 0.017
ATCGTCGGTT	0.973 ± 0.013
ATCGTGGGAT	1.01 ± 0.0081
ATCGTTAGAA	1.006 ± 0.0025
ATCGTTGGCT	1.04 ± 0.07
ATCTAACGGC	1.01 ± 0.0079
ATCTAATGCC	1.01 ± 0.042
ATCTAGTACG	1.02 ± 0.044
ATCTCCGGGG	1.04 ± 0.016
